# Earlier results as cited in publication PMC4440831 (Chembiochem : a European journal of chemical biology, 2015).
# Target: CXCR4 receptor (Homo sapiens, UniProt P61073)
# Details: earlier work of the same group
# CXCR4 receptor, sequence (P61073 whole entry): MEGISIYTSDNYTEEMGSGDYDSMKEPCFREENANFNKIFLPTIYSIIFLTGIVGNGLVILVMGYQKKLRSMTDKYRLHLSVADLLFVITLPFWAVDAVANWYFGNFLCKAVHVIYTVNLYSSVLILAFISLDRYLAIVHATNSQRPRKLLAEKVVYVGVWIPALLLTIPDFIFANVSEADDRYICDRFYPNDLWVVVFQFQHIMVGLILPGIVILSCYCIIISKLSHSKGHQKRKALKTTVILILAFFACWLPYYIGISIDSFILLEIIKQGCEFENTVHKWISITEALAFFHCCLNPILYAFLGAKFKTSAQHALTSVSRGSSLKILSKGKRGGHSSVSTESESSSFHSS
substance,measurement,value
"MCoTI-I: empty scaffold cyclotide (SGSDGGVCPKILQRCRRDSDCPGACICRGNGYCG; not fully specified; Trypsin inhibitor 1; UniProt P82408 1-34, looked up)","CXCR4 inhibitory activity, result in words",no inhibitory activity
